Measurements as given in patent US20230201322A1 (ENTEROME S A, published 2023).

These binders were tested against T1, HLA-A*0201 molecule expressed on the human tumoral cell T2 (human) (assay: T2 cell HLA-A2 FACS (BB7.2-PE), peptide 1 µM).
T1 construct: Empty or peptide-receptive class I molecule on T2 cells; surface level read with anti-HLA-A2 antibody BB7.2-PE after incubation with the peptide; also called HLA-A2
Experimental: (§1) T2 cells (2·10⁵ cells per well) are incubated with decreasing concentrations of peptides from 100 μM to 0.1 μM in a AIMV medium supplemented with 100 ng/μl of human β2m at 37° C. for 16 hours. Cells are then washed two times and marked with the anti-HLA-A2 antibody coupled to PE (clone BB7.2, BD Pharmagen).
(§2) The relative affinity is then determined as follows: […]

Binder	HLA-A2 labelling as % of reference peptide HIV pol 589-597 at 100 µM
YLAVFLPIV [antigenic peptide STEAP-B2 (YLAVFLPIV)]	4.87%
MIAVFLPIV [reference human peptide derived from STEAP, STEAP-H (MIAVFLPIV)]	-4.47%
ITSDVPFSV [antigenic peptide PMEL-B (ITSDVPFSV)]	3.62%
MLAVFLPLV [antigenic peptide STEAP-B1 (MLAVFLPLV)]	8.92%
ILLGVVFGI [antigenic peptide ERBB2-3B4 (ILLGVVFGI)]	26.1%
KVVEFLAML [reference human peptide derived from MAGE C1, MAGE C1H (KVVEFLAML)]	7.12%
RLLEETDLV [antigenic peptide ERBB2-1B (RLLEETDLV)]	2.86%
VMLGVVFGV [antigenic peptide ERBB2-3B1 (VMLGVVFGV)]	-12.9%
VMLGVVFGI [antigenic peptide ERBB2-3B3 (VMLGVVFGI)]	-10.6%
SLPPDVQQV [antigenic peptide MMP2-B (SLPPDVQQV)]	24.6%
KLVEWLAML [antigenic peptide MAGE C1B (KLVEWLAML)]	3.97%
GLPPDVQRV [reference human peptide derived from MMP2, MMP2-H (GLPPDVQRV)]	17.8%

What follows are binders tested against T1, HLA-A*0201 molecule expressed on the … (assay: T2 cell HLA-A2 FACS (BB7.2-PE), peptide 10 µM).
Experimental: as §1, §2

Binder	HLA-A2 labelling as % of reference peptide HIV pol 589-597 at 100 µM
YLAVFLPIV [antigenic peptide STEAP-B2 (YLAVFLPIV)]	27.7%
MIAVFLPIV [reference human peptide derived from STEAP, STEAP-H (MIAVFLPIV)]	14.9%
ITSDVPFSV [antigenic peptide PMEL-B (ITSDVPFSV)]	7.93%
MLAVFLPLV [antigenic peptide STEAP-B1 (MLAVFLPLV)]	45.1%
ILLGVVFGI [antigenic peptide ERBB2-3B4 (ILLGVVFGI)]	138%
KVVEFLAML [reference human peptide derived from MAGE C1, MAGE C1H (KVVEFLAML)]	7.84%
RLLEETDLV [antigenic peptide ERBB2-1B (RLLEETDLV)]	26.4%
VMLGVVFGV [antigenic peptide ERBB2-3B1 (VMLGVVFGV)]	26.7%
VMLGVVFGI [antigenic peptide ERBB2-3B3 (VMLGVVFGI)]	16.6%
SLPPDVQQV [antigenic peptide MMP2-B (SLPPDVQQV)]	96%
KLVEWLAML [antigenic peptide MAGE C1B (KLVEWLAML)]	21.4%
GLPPDVQRV [reference human peptide derived from MMP2, MMP2-H (GLPPDVQRV)]	66.3%

The binders below were run against T1, HLA-A*0201 molecule expressed on the … (assay: T2 cell HLA-A2 FACS (BB7.2-PE), peptide 0.1 µM).
Experimental: as §1, §2

Binder	HLA-A2 labelling as % of reference peptide HIV pol 589-597 at 100 µM
YLAVFLPIV [antigenic peptide STEAP-B2 (YLAVFLPIV)]	-0.34%
MIAVFLPIV [reference human peptide derived from STEAP, STEAP-H (MIAVFLPIV)]	0.11%
ITSDVPFSV [antigenic peptide PMEL-B (ITSDVPFSV)]	4.69%
MLAVFLPLV [antigenic peptide STEAP-B1 (MLAVFLPLV)]	6.67%
ILLGVVFGI [antigenic peptide ERBB2-3B4 (ILLGVVFGI)]	-11.6%
KVVEFLAML [reference human peptide derived from MAGE C1, MAGE C1H (KVVEFLAML)]	5.77%
RLLEETDLV [antigenic peptide ERBB2-1B (RLLEETDLV)]	-1.18%
VMLGVVFGV [antigenic peptide ERBB2-3B1 (VMLGVVFGV)]	-16%
VMLGVVFGI [antigenic peptide ERBB2-3B3 (VMLGVVFGI)]	-16.3%
SLPPDVQQV [antigenic peptide MMP2-B (SLPPDVQQV)]	4.69%
KLVEWLAML [antigenic peptide MAGE C1B (KLVEWLAML)]	2.45%
GLPPDVQRV [reference human peptide derived from MMP2, MMP2-H (GLPPDVQRV)]	5.41%

These binders were tested against T1, HLA-A*0201 molecule expressed on the … (assay: T2 cell HLA-A2 FACS (BB7.2-PE), peptide 100 µM).
Experimental: as §1, §2

Binder	HLA-A2 labelling as % of reference peptide HIV pol 589-597 at 100 µM
YLAVFLPIV [antigenic peptide STEAP-B2 (YLAVFLPIV)]	97.9%
MIAVFLPIV [reference human peptide derived from STEAP, STEAP-H (MIAVFLPIV)]	102%
ITSDVPFSV [antigenic peptide PMEL-B (ITSDVPFSV)]	74.8%
MLAVFLPLV [antigenic peptide STEAP-B1 (MLAVFLPLV)]	132%
ILLGVVFGI [antigenic peptide ERBB2-3B4 (ILLGVVFGI)]	265%
KVVEFLAML [reference human peptide derived from MAGE C1, MAGE C1H (KVVEFLAML)]	32.3%
RLLEETDLV [antigenic peptide ERBB2-1B (RLLEETDLV)]	297%
VMLGVVFGV [antigenic peptide ERBB2-3B1 (VMLGVVFGV)]	122%
VMLGVVFGI [antigenic peptide ERBB2-3B3 (VMLGVVFGI)]	179%
SLPPDVQQV [antigenic peptide MMP2-B (SLPPDVQQV)]	131%
KLVEWLAML [antigenic peptide MAGE C1B (KLVEWLAML)]	109%
GLPPDVQRV [reference human peptide derived from MMP2, MMP2-H (GLPPDVQRV)]	154%

These binders were tested against T1, HLA-A*0201 molecule expressed on the … (assay: T2 cell HLA-A2 FACS (BB7.2-PE), peptide titration).
Experimental: as §1, §2

Binder	Conc. inducing 20% of HLA-A2 expression
YLAVFLPIV [antigenic peptide STEAP-B2 (YLAVFLPIV)]	8.22 µM
MIAVFLPIV [reference human peptide derived from STEAP, STEAP-H (MIAVFLPIV)]	33.5 µM
ITSDVPFSV [antigenic peptide PMEL-B (ITSDVPFSV)]	18.2 µM
MLAVFLPLV [antigenic peptide STEAP-B1 (MLAVFLPLV)]	5 µM
ILLGVVFGI [antigenic peptide ERBB2-3B4 (ILLGVVFGI)]	0.9 µM
KVVEFLAML [reference human peptide derived from MAGE C1, MAGE C1H (KVVEFLAML)]	60.1 µM
RLLEETDLV [antigenic peptide ERBB2-1B (RLLEETDLV)]	9.5 µM
VMLGVVFGV [antigenic peptide ERBB2-3B1 (VMLGVVFGV)]	9 µM
VMLGVVFGI [antigenic peptide ERBB2-3B3 (VMLGVVFGI)]	12.5 µM
SLPPDVQQV [antigenic peptide MMP2-B (SLPPDVQQV)]	0.88 µM
KLVEWLAML [antigenic peptide MAGE C1B (KLVEWLAML)]	30.9 µM
GLPPDVQRV [reference human peptide derived from MMP2, MMP2-H (GLPPDVQRV)]	1.76 µM

What follows are binders tested against T1, HLA-A*0201 molecule expressed on the … (assay: T2 cell HLA-A2 FACS (BB7.2-PE); ratio of 20% concentrations against HIV pol 589-597).
Experimental: as §1, §2

Binder	Relative affinity
YLAVFLPIV [antigenic peptide STEAP-B2 (YLAVFLPIV)]	0.27
MIAVFLPIV [reference human peptide derived from STEAP, STEAP-H (MIAVFLPIV)]	1.08
ITSDVPFSV [antigenic peptide PMEL-B (ITSDVPFSV)]	0.59
MLAVFLPLV [antigenic peptide STEAP-B1 (MLAVFLPLV)]	0.16
ILLGVVFGI [antigenic peptide ERBB2-3B4 (ILLGVVFGI)]	0.03
KVVEFLAML [reference human peptide derived from MAGE C1, MAGE C1H (KVVEFLAML)]	1.94
RLLEETDLV [antigenic peptide ERBB2-1B (RLLEETDLV)]	0.26
VMLGVVFGV [antigenic peptide ERBB2-3B1 (VMLGVVFGV)]	0.25
VMLGVVFGI [antigenic peptide ERBB2-3B3 (VMLGVVFGI)]	0.35
SLPPDVQQV [antigenic peptide MMP2-B (SLPPDVQQV)]	0.03
KLVEWLAML [antigenic peptide MAGE C1B (KLVEWLAML)]	0.31
GLPPDVQRV [reference human peptide derived from MMP2, MMP2-H (GLPPDVQRV)]	0.06
